No end group written: not given here.
Key:
[1] = biological target: BSA (UniProt P02769 25-607); experiment: phage ELISA, detected with anti-M13-HRP and ABTS, A405 after 30 min, n=3
[2] = biological target: T1, human VEGF165 (human, UniProt P15692-4 27-191); experiment: SPR (BIAcore 3000), 6000 RU VEGF on CM5 chip, TNF reference lane, peptide injected; two state reaction model with conformation change
T1 construct: Bought recombinant protein; Coated on plates (ELISA), amine-coupled to a CM5 chip (SPR) or added to HUVE cells at 10 ng/mL; also called hVEGF165; vascular endothelial growth factor

[3] = biological target: T1, human VEGF165; experiment: SPR (BIAcore 3000), VEGF165 coupled to CM5 chip, peptide injected; two state reaction model with conformation change
[4] = biological target: T1, human VEGF165; experiment: surface plasmon resonance (BIAcore), hVEGF165 coupled to a CM5 chip, BBI-VEGF injected
[5] = biological target: T1, human VEGF165; experiment: plate binding assay: hVEGF165-coated wells, bound beta-lactamase activity measured with nitrocefin (mOD/min)

T1 sequence (P15692 other isoform, or with tags, fused parts or gaps limits assumed): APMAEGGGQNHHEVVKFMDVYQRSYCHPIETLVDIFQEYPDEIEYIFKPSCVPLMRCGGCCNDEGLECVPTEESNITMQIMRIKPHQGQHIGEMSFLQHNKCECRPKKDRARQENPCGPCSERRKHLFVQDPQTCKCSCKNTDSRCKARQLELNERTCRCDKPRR
Sequence of BSA (P02769 25-607 limits assumed): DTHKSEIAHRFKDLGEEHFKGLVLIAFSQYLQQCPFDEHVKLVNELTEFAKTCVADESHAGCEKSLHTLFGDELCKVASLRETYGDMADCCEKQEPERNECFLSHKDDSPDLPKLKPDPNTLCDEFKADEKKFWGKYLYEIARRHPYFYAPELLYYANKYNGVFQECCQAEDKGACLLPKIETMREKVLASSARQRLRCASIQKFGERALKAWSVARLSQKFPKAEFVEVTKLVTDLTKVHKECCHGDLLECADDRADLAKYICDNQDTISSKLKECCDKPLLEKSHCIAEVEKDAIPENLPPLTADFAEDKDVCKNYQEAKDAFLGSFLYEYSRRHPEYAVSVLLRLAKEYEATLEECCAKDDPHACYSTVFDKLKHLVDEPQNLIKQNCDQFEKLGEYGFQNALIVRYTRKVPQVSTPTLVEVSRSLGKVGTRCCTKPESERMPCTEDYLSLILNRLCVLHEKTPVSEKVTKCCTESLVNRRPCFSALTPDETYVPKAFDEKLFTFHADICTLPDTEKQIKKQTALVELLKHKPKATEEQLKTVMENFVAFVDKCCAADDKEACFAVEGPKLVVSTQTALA

ACYNLYGWTCGGG [SEQ ID NO 1]: no binding [1].

ACTLWPSYWCGGG [SEQ ID NO 7]: no binding [1].

B1: CK37283 (peptide)
peptide: ACNLWPHFWCGGG
modifications: Probably cyclised by a Cys2-Cys10 disulfide, since it comes from the C7C constrained library. The patent does not say this for the synthetic peptide.
notes: Synthetic peptide from the phage panning
B1 showed a Kd [2] of 4.9 µM, a koff [2] of 0.318 s⁻¹ and a kon [2] of 12400 M⁻¹ s⁻¹.

ACNLWPHFWCGGG [SEQ ID NO 3]: no binding [1].

ACSLWPAFWCGGG [SEQ ID NO 4]: no binding [1].

Work on ACYNLYGWTCGGG (cysteine pairing not given here; also: biotinylated, site not given here, Synthetic peptide (FMOC, SynPep)) [biotinylated peptide CK37281] yielded a Kd [3] of 1.92 µM, a koff [3] of 0.0122 s⁻¹ and a kon [3] of 2840 M⁻¹ s⁻¹.

B2: BBI-VEGF1 (designed binder)
chain: DDESSKPCCDQCACYNLYGWTCRCSDMRLNSCHSACKSCICALSYPAQCFCVDITDFCYEPCKPSEDDKEN
notes: also called anti-VEGF BBI
B2: binds [4].

B3: BLA (enzyme)
chain: TPVSEKQLAEVVANTITPLMKAQSVPGMAVAVIYQGKPHYYTFGKADIAANKPVTPQTLFELGSISKTFTGVLGGDAIARGEISLDDAVTRYWPQLTGKQWQGIRMLDLATYTAGGLPLQVPDEVTDNASLLRFYQNWQPQWKPGTTRLYANASIGLFGALAVKPSGMPYEQAMTTRVLKPLKLDHTWINVPKAEEAHYAWGYRDGKAVRVSPGMLDAQAYGVKTNVQDMANWVMANMAPENVADASLKQGIALAQSRYWRIGSMYQGLGWEMLNWPVEANTVVEGSDSKVALAPLPVAEVNPPAPPVKASWVHKTGSTGGFGSYVAFIPEKQIGIVMLANTSYPNPARVEAAYHILEALQHHHHHH
notes: also called pCB04; pCB04 (WT)
B3: no binding (tested: about 40 µM) [5].

ACTLWPTFWCGGG [SEQ ID NO 2]: no binding [1].

Reference: patent US20050203026A1 (DANISCO US, published 2005)
